# Reference: IntAct's records for PubMed 15886098
# B1: Ras and Rab interactor 1 (Homo sapiens), Q13671 (parent)
# chain: MESPGESGAGSPGAPSPSSFTTGHLAREKPAQDPLYDVPNASGGQAGGPQRPGRVVSLRERLLLTRPVWLQLQANAAAALHMLRTEPPGTFLVRKSNTRQCQALCMRLPEASGPSFVSSHYILESPGGVSLEGSELMFPDLVQLICAYCHTRDILLLPLQLPRAIHHAATHKELEAISHLGIEFWSSSLNIKAQRGPAGGPVLPQLKARSPQELDQGTGAALCFFNPLFPGDLGPTKREKFKRSFKVRVSTETSSPLSPPAVPPPPVPVLPGAVPSQTERLPPCQLLRRESSVGYRVPAGSGPSLPPMPSLQEVDCGSPSSSEEEGVPGSRGSPATSPHLGRRRPLLRSMSAAFCSLLAPERQVGRAAAALMQDRHTAAGQLVQDLLTQVRAGPEPQELQGIRQALSRARAMLSAELGPEKLLSPKRLEHVLEKSLHCSVLKPLRPILAARLRRRLAADGSLGRLAEGLRLARAQGPGAFGSHLSLPSPVELEQVRQKLLQLLRTYSPSAQVKRLLQACKLLYMALRTQEGEGAGADEFLPLLSLVLAHCDLPELLLEAEYMSELLEPSLLTGEGGYYLTSLSASLALLSGLGQAHTLPLSPVQELRRSLSLWEQRRLPATHCFQHLLRVAYQDPSSGCTSKTLAVPPEASIATLNQLCATKFRVTQPNTFGLFLYKEQGYHRLPPGALAHRLPTTGYLVYRRAEWPETQGAVTEEEGSGQSEARSRGEEQGCQGDGDAGVKASPRDIREQSETTAEGGQGQAQEGPAQPGEPEAEGSRAAEE
# B2: Tyrosine-protein kinase ABL2 (Homo sapiens), P42684 (parent)
# chain: MGQQVGRVGEAPGLQQPQPRGIRGSSAARPSGRRRDPAGRTTETGFNIFTQHDHFASCVEDGFEGDKTGGSSPEALHRPYGCDVEPQALNEAIRWSSKENLLGATESDPNLFVALYDFVASGDNTLSITKGEKLRVLGYNQNGEWSEVRSKNGQGWVPSNYITPVNSLEKHSWYHGPVSRSAAEYLLSSLINGSFLVRESESSPGQLSISLRYEGRVYHYRINTTADGKVYVTAESRFSTLAELVHHHSTVADGLVTTLHYPAPKCNKPTVYGVSPIHDKWEMERTDITMKHKLGGGQYGEVYVGVWKKYSLTVAVKTLKEDTMEVEEFLKEAAVMKEIKHPNLVQLLGVCTLEPPFYIVTEYMPYGNLLDYLRECNREEVTAVVLLYMATQISSAMEYLEKKNFIHRDLAARNCLVGENHVVKVADFGLSRLMTGDTYTAHAGAKFPIKWTAPESLAYNTFSIKSDVWAFGVLLWEIATYGMSPYPGIDLSQVYDLLEKGYRMEQPEGCPPKVYELMRACWKWSPADRPSFAETHQAFETMFHDSSISEEVAEELGRAASSSSVVPYLPRLPILPSKTRTLKKQVENKENIEGAQDATENSASSLAPGFIRGAQASSGSPALPRKQRDKSPSSLLEDAKETCFTRDRKGGFFSSFMKKRNAPTPPKRSSSFREMENQPHKKYELTGNFSSVASLQHADGFSFTPAQQEANLVPPKCYGGSFAQRNLCNDDGGGGGGSGTAGGGWSGITGFFTPRLIKKTLGLRAGKPTASDDTSKPFPRSNSTSSMSSGLPEQDRMAMTLPRNCQRSKLQLERTVSTSSQPEENVDRANDMLPKKSEESAAPSRERPKAKLLPRGATALPLRTPSGDLAITEKDPPGVGVAGVAAAPKGKEKNGGARLGMAGVPEDGEQPGWPSPAKAAPVLPTTHNHKVPVLISPTLKHTPADVQLIGTDSQGNKFKLLSEHQVTSSGDKDRPRRVKPKCAPPPPPVMRLLQHPSICSDPTEEPTALTAGQSTSETQEGGKKAALGAVPISGKAGRPVMPPPQVPLPTSSISPAKMANGTAGTKVALRKTKQAAEKISADKISKEALLECADLLSSALTEPVPNSQLVDTGHQLLDYCSGYVDCIPQTRNKFAFREAVSKLELSLQELQVSSAAAGVPGTNPVLNNLLSCVQEISDVVQR
# partner: B1 chain
# Variants of: B1
# Conditions: with abl2_human ABL2, P42684
row,effect of a mutation on the interaction,Variant
1,decreasing interaction,Y36F;Y121F;Y148F

# Variants of: B2
# Conditions: with rin1_human RIN1, Q13671
row,effect of a mutation on the interaction,Variant
1,decreasing interaction,K317R
